This passage reports stoichiometry N results from publication PMC4335406.

Test [1] deals with DsLOV, short LOV protein from Dinoroseobacter shibae DFL12T (Dinoroseobacter shibae DFL12T). As to the kind of experiment: SEC; analytical size-exclusion chromatography; data not shown; conditions not given. On the technique in general: Size exclusion chromatography separates by hydrodynamic size, large species first.
For test [2] the target is unchanged. Description: small angle X-ray scattering (SAXS); 7.2 and 14.8 mg/ml DsLOV in 10 mM NaH2PO4, 300 mM NaCl, pH 8.0, 10°C; beamline BM29, ESRF.

Usually stoichiometry N stands for a count of units in the complex or per binding partner.

Consider “DsLOV, short LOV protein from Dinoroseobacter shibae DFL12T (natural protein)”, for which the stoichiometry N in test [1] and in test [2] was 2 throughout.
